Source: article PMC3547700

Molecular target: V5-UL56 (HCMV strain AD169), plasmid-expressed (human cytomegalovirus strain AD169)

Substance	percentage of transfected HEK-293 T cells with nuclear staining of UL56 by confocal microscopy, in the presence of UL89 (UL56 alone exclusively cytoplasmic) (% of cells with nuclear staining)	percentage of transfected HEK-293 T cells with nuclear staining of UL89 by confocal microscopy, in the presence of UL56 (UL89 alone exclusively cytoplasmic) (% of cells with nuclear staining)	percentage of transfected HEK-293 T cells with nuclear staining of UL56 by confocal microscopy, in the presence of UL51 (UL56 alone exclusively cytoplasmic) (% of cells with nuclear staining)
MYC-UL89 (HCMV strain AD169), plasmid-expressed (natural protein)	37	26	
FLAG-UL51 (HCMV strain AD169), plasmid-expressed (natural protein)			62
